Substrate: NC(=O)C[C@H](N)C(=O)O
Test: circular dichroism hydrolysis assay
Format: biochemical, Rhodospirillum rubrum
Details: native RrA, pH 7.5, 5 mM citrate-phosphate-borate buffer, 37 °C
Description: circular dichroism hydrolysis assay on RrA (L-asparaginase from Rhodospirillum rubrum)

B1: RrA (L-asparaginase from Rhodospirillum rubrum) (Rhodospirillum rubrum ATCC 11170) (protein)
chain: MAVSPSPLRIFTAGGTIDKDYRLEENGLVVGDPFVAEVLKTARLAGAVSIVALSRKDSLDFTEADREAIGRAVGQAVEDHILLTHGTDTMVETARYLGGLPELAGKTVVLSGAMVPGRVGGSDAAFNIGFACAAALMLAPGVYIAMHGKVFDPAKTRKNRGLGRFEPIDDQE
notes: 172 aa, 18 kDa, tetramer; native unconjugated enzyme
- Km: 4.8 ± 1.6 mM
- Vmax: 59 µmol/min/mg
- Vmax/Km: 12300 µL/min/mg
